Earlier results on 1 substance are cited in article PMC5040959.

The data set has as its target Glu286 (UniProt position 286, FFGHPEVYIIV). In words: kinetics. As to conditions: fully reduced CytcO reacting with O2, F -> O step.

A word on the pKa: it is the pH at which an ionisable group is half protonated. In the case of “Cytochrome c oxidase (cytochrome aa3), subunit I (Rhodobacter sphaeroides)”, the pKa is reported as about 9.
